Assay results published in the supplement of paper PMC10724198.
± gives the standard deviation of the averaged measurements.

System: Saccharomyces cerevisiae
Assay: protein stability index of tFT-peptide fusion (C-terminal peptide) (PSI (0-1 scale)); higher = more stable (slower turnover)
Conditions: temperature: 30 C
Description: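 MPS profiling in S. cerevisiae of the yeast C-terminome library: the last 12 aa of each annotated ORF are fused to the C-terminus of a sfGFP-mCherry timer, after a GGGS linker. Cells are FACS-sorted into 8 mCherry/sfGFP bins and deep-sequenced. PSI runs from 0 (unstable) to 1 (stable); wild type and das1Δ backgrounds, two technical replicates each.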

[1] = genetic background: das1 deletion

| Sequence | protein stability index [1] | protein stability index (genetic background: wild type) |
| --- | --- | --- |
| LKTIAAVFSVRV [YJR114W C-terminal 12 aa] | 0.612 ± 0.0077 | 0.629 ± 0.022 |
| LLERLSILDRLD [APS2 C-terminal 12 aa] | 0.669 ± 0.019 | 0.69 ± 0.013 |
| LLIPRRILTLDL [PDL32 C-terminal 12 aa] | 0.602 ± 0.001 | 0.605 ± 0.036 |
| LLLLILNECYPA [BUD30 C-terminal 12 aa] | 0.518 ± 0.0085 | 0.539 ± 0.033 |
| LLLSFYFDFYPF [YEL050W-A C-terminal 12 aa] | 0.515 ± 0.009 | 0.6535 ± 0.0032 |
| LLPMAFGPSHLN [CDD1 C-terminal 12 aa] | 0.743 ± 0.032 | 0.76 ± 0.045 |
| LLSGEPLAKKKE [HMLALPHA2 C-terminal 12 aa] | 0.697 ± 0.0074 | 0.744 ± 0.036 |
| LLSVHMYSSSLL [YNL019C C-terminal 12 aa] | 0.687 ± 0.011 | 0.671 ± 0.018 |
| LMETSKDVDSHP [DMA2 C-terminal 12 aa] | 0.7 ± 0.01 | 0.729 ± 0.0096 |
| LPEAPSSQPLQA [TIM17 C-terminal 12 aa] | 0.674 ± 0.013 | 0.696 ± 0.03 |
| LPNVPTVAYVII [YNL319W C-terminal 12 aa] | 0.6334 ± 0.0054 | 0.664 ± 0.024 |
| LPPEGKPKGKDD [TAZ1 C-terminal 12 aa] | 0.701 ± 0.018 | 0.661 ± 0.018 |
| LQARLNTLKKQT [DID4 C-terminal 12 aa] | 0.681 ± 0.049 | 0.604 ± 0.0095 |
| LQPLIDLDIDNK [ICS2 C-terminal 12 aa] | 0.699 ± 0.026 | 0.702 ± 0.041 |
| LQRLCKKYPEIY [RFA3 C-terminal 12 aa] | 0.709 ± 0.015 | 0.703 ± 0.02 |
| LRIYKNPPLDGP [YJL163C C-terminal 12 aa] | 0.729 ± 0.022 | 0.745 ± 0.017 |
| LRRYEEDLFCTF [IES2 C-terminal 12 aa] | 0.759 ± 0.029 | 0.7425 ± 0.0059 |
| LRWKKRNGIASK [NOP16 C-terminal 12 aa] | 0.636 ± 0.017 | 0.663 ± 0.028 |
| LSHKGIKHLNIT [YGR266W C-terminal 12 aa] | 0.702 ± 0.022 | 0.68 ± 0.057 |
| LSKRRTRLINFN [PXL1 C-terminal 12 aa] | 0.727 ± 0.013 | 0.538 ± 0.047 |
| LSLRTKNTENKE [YGL159W C-terminal 12 aa] | 0.716 ± 0.038 | 0.688 ± 0.033 |

| Sequence | protein stability index [1] | protein stability index (genetic background: wild type) |
| --- | --- | --- |
| LSQRVKKEYAAN [COQ21 C-terminal 12 aa] | 0.708 ± 0.024 | 0.685 ± 0.0074 |
| LSSSDDNYGSLA [SNA2 C-terminal 12 aa] | 0.702 ± 0.013 | 0.669 ± 0.034 |
| LTARRKNRQQWE [COX23 C-terminal 12 aa] | 0.704 ± 0.022 | 0.692 ± 0.024 |
| LTINDLDVTFVI [YCR041W C-terminal 12 aa] | 0.721 ± 0.022 | 0.71 ± 0.0024 |
| LTTSVLCCVVFT [CNE1 C-terminal 12 aa] | 0.348 ± 0.0076 | 0.364 ± 0.0028 |
| LTYNTSCQRRQK [YOR161W-A C-terminal 12 aa] | 0.715 ± 0.0089 | 0.717 ± 0.072 |
| LVSYFLKVQMNL [YNL095C C-terminal 12 aa] | 0.514 ± 0.02 | 0.491 ± 0.011 |
| LYKPSVWDLFEY [FZF1 C-terminal 12 aa] | 0.716 ± 0.016 | 0.6818 ± 0.0023 |
| LYVCIYISAFIK [FYV12 C-terminal 12 aa] | 0.137 ± 0.019 | 0.143 ± 0.0053 |
| MAHRIKNFRDEL [SIL1 C-terminal 12 aa] | 0.712 ± 0.0079 | 0.672 ± 0.032 |
| MAINDCFDQAQG [YER076C C-terminal 12 aa] | 0.695 ± 0.0062 | 0.693 ± 0.012 |
| MASVVKGNATSA [PHO90 C-terminal 12 aa] | 0.69425 ± 0.00061 | 0.688 ± 0.027 |
| MDLKRFKGEFSF [PEX5 C-terminal 12 aa] | 0.69824 ± 0.00026 | 0.685 ± 0.036 |
| MDSRVAHGNILI [SRB5 C-terminal 12 aa] | 0.70004 ± 0.00046 | 0.688 ± 0.092 |
| MGCIKGTVKTKY [ABZ2 C-terminal 12 aa] | 0.668 ± 0.039 | 0.756 ± 0.14 |
| MIENEKQNPAKQ [OSH6 C-terminal 12 aa] | 0.693 ± 0.0075 | 0.692 ± 0.028 |
| MMGFSNFATSKK [SNU23 C-terminal 12 aa] | 0.728 ± 0.011 | 0.683 ± 0.035 |
| MNKKHHKPIPFD [RRD2 C-terminal 12 aa] | 0.762 ± 0.027 | 0.697 ± 0.0073 |
| MPSATTKNPYAQ [CAF120 C-terminal 12 aa] | 0.709 ± 0.042 | 0.686 ± 0.034 |
| MRLLGLTPVERM [YDR341C C-terminal 12 aa] | 0.672 ± 0.00072 | 0.696 ± 0.034 |
| MTRLKKLLTLEW [ZIP2 C-terminal 12 aa] | 0.817 ± 0.047 | 0.733 ± 0.046 |

| Sequence | protein stability index [1] | protein stability index (genetic background: wild type) |
| --- | --- | --- |
| MVSSLRNANHIF [BCS1 C-terminal 12 aa] | 0.712 ± 0.028 | 0.681 ± 0.025 |
| NAKSKVFSIENN [LSG1 C-terminal 12 aa] | 0.681 ± 0.039 | 0.678 ± 0.015 |
| NCEPIATTFRAN [MGL2 C-terminal 12 aa] | 0.7086 ± 0.00098 | 0.681 ± 0.018 |
| NDDSKDEDDIIP [MAL33 C-terminal 12 aa] | 0.6831 ± 0.0019 | 0.731 ± 0.056 |
| NDTEHVTLHTNT [YDL228C C-terminal 12 aa] | 0.711 ± 0.0095 | 0.688 ± 0.031 |
| NEASKATGASVH [YOP1 C-terminal 12 aa] | 0.7 ± 0.0098 | 0.737 ± 0.094 |
| NGPVNNNAHLVA [FAT3 C-terminal 12 aa] | 0.689 ± 0.0098 | 0.709 ± 0.049 |
| NGSDNVTPGGRL [STE50 C-terminal 12 aa] | 0.708 ± 0.014 | 0.685 ± 0.022 |
| NIIIIILYVYIH [MOR1 C-terminal 12 aa] | 0.227 ± 0.0036 | 0.228 ± 0.025 |
| NISNGSSTQDMK [HPR1 C-terminal 12 aa] | 0.703 ± 0.029 | 0.704 ± 0.065 |
| NKGSQLLAKLLK [PUF6 C-terminal 12 aa] | 0.7305 ± 0.0034 | 0.674 ± 0.036 |
| NKHDLHLRPETY [YAR010C C-terminal 12 aa] | 0.658 ± 0.018 | 0.678 ± 0.021 |
| NKHDLHLRPGTY [YDR098C-A C-terminal 12 aa] | 0.66848 ± 3.1e-05 | 0.658 ± 0.007 |
| NKLLDKESVSED [YLR046C C-terminal 12 aa] | 0.709 ± 0.027 | 0.711 ± 0.11 |
| NKTICLRNYHWL [YIR017W-A C-terminal 12 aa] | 0.702 ± 0.012 | 0.607 ± 0.0078 |
| NLKLKFNENIME [DIT2 C-terminal 12 aa] | 0.695 ± 0.033 | 0.639 ± 0.0087 |
| NLLLSGSLYQKN [BUD28 C-terminal 12 aa] | 0.751 ± 0.011 | 0.672 ± 0.036 |
| NMEKFVRKCWKD [MKK1 C-terminal 12 aa] | 0.691 ± 0.059 | 0.73796 ± 0.00058 |
| NQVKLNQLLVGN [CSE1 C-terminal 12 aa] | 0.627 ± 0.038 | 0.641 ± 0.0068 |
| NTLLSPSRKDNS [MVB12 C-terminal 12 aa] | 0.705 ± 0.0098 | 0.698 ± 0.034 |
| NVAAAEASKKGN [YET1 C-terminal 12 aa] | 0.728 ± 0.033 | 0.685 ± 0.053 |

| Sequence | protein stability index [1] | protein stability index (genetic background: wild type) |
| --- | --- | --- |
| NVDDAYSRVFGI [MPS2 C-terminal 12 aa] | 0.719 ± 0.011 | 0.673 ± 0.025 |
| NVEDEYSYSLTL [VPS68 C-terminal 12 aa] | 0.701 ± 0.0071 | 0.706 ± 0.066 |
| NVGNNEETLDDH [RAD34 C-terminal 12 aa] | 0.726 ± 0.047 | 0.701 ± 0.067 |
| NVWDWNNWTSAT [GAL11 C-terminal 12 aa] | 0.7485 ± 0.006 | 0.767 ± 0.012 |
| NYESVEVPAANN [YML018C C-terminal 12 aa] | 0.682 ± 0.0077 | 0.7097 ± 0.0019 |
| PARESMLHKEIK [ADE12 C-terminal 12 aa] | 0.745 ± 0.011 | 0.668 ± 0.011 |
| PCYSDAPPRFMC [YER152W-A C-terminal 12 aa] | 0.701 ± 0.034 | 0.287 ± 0.0035 |
| PDMIEELDLHED [GPD1 C-terminal 12 aa] | 0.716 ± 0.031 | 0.749 ± 0.1 |
| PDYKSNTQILVL [YOL155W-A C-terminal 12 aa] | 0.56446 ± 0.00018 | 0.584 ± 0.029 |
| PEEETNWFSGHG [PRP31 C-terminal 12 aa] | 0.745 ± 0.032 | 0.73 ± 0.025 |
| PEMIEELDIDDE [GPD2 C-terminal 12 aa] | 0.707 ± 0.018 | 0.658 ± 0.015 |
| PEYDQVKQNNKE [YLR041W C-terminal 12 aa] | 0.691 ± 0.023 | 0.676 ± 0.03 |
| PFNRNVSDKLKK [VAC14 C-terminal 12 aa] | 0.733 ± 0.038 | 0.713 ± 0.063 |
| PGVMLGRWKVTA [VPS61 C-terminal 12 aa] | 0.612 ± 0.013 | 0.356 ± 0.0069 |
| PGWDFNVQIFAI [HRD3 C-terminal 12 aa] | 0.618 ± 0.005 | 0.607 ± 0.0086 |
| PIICASVTFLPT [YAL056C-A C-terminal 12 aa] | 0.6572 ± 0.00082 | 0.629 ± 0.026 |
| PIKGGDKASSEL [ATG5 C-terminal 12 aa] | 0.679 ± 0.0085 | 0.6877 ± 0.0045 |
| PILSQEVDRWRL [GAC1 C-terminal 12 aa] | 0.732 ± 0.011 | 0.744 ± 0.018 |
| PIRGVTGGVYKW [MRPL22 C-terminal 12 aa] | 0.71 ± 0.012 | 0.702 ± 0.02 |
